Assay [1] addresses T1, HIDE1_HH-1 (Human ECD + human IgG1 Fc mutated C220S at hinge), without SP (human).
T1 construct: Batch #280 in the Serotec and phage display work; also called HIDE1 hECD-hIg; HIDE1 (H:H) recombinant Fc fusion protein
In words: SPR (ProteOn XPR 36): HIDE1-HH-1 captured on goat anti-human Fc GLC chip, Fab periplasmic extract injected 2 min, undiluted and 3-fold dilutions, 10 min dissociation. The method, then:
A high density goat anti-human Fc antibody (Invitrogen) was immobilized by standard amine coupling over all lanes of a GLC chip using a ProteOn XPR 36 biosensor (Biorad). This surface was used to capture the recombinant HIDE1-H:H fusion protein (GenScript Lot 393383-21, batch #280) or a control Fc fusion protein (CD155, Sino Biologicals) in the vertical flow-cell direction at a concentration of ˜0.5 μg/mL for 90 seconds.
Each anti-HIDE1 Fab PPE sample was then injected at three concentrations (undiluted fab supernatant and two three-fold serial dilutions) in the horizontal direction over the captured fusion proteins. The dilutions were made using degassed PBS with 0.05% Tween 20 and 0.01% BSA. PPEs were injected for two minutes followed by 10 minutes of dissociation at a flow rate of 50 μL/min. The starting concentration range for each Fab is recorded in Table 39. The anti-human fc capture surfaces were regenerated with two 30-second pulses of 146 mM phosphoric acid after each cycle.

For assay [2], the target named is T1, HIDE1_HH-1 (Human ECD + human IgG1 Fc …). Description: BLI Octet RED384, bivalent Fab-A-FH. On the technique in general: BLI is a label-free optical method that tracks binding on a fibre tip over time.
For the next assay, the target named is T2, human HIDE1-flag (human, UniProt A8MVS5 20-230).
T2 construct: Over-expressed on HEK293, SK-MEL-5, CHO-S and CHO-S OKT3 cells (pMSCV or pcDNA3.1); whole cell extracts in WB; Entry includes the signal peptide; also called hHIDE1 Flag
T2 sequence: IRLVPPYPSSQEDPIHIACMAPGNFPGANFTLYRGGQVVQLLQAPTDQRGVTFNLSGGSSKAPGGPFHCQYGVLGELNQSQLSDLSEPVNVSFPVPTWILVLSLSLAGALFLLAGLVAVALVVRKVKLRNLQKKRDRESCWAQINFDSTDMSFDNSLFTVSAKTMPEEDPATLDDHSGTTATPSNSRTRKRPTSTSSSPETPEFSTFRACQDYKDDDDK
In words: FACS, HEK293 human HIDE1 Flag cells vs HEK293 empty vector, goat anti-human IgG F(ab')2-PE. On the technique in general: In flow cytometry, cells or beads pass a laser one at a time.

For another assay, the target named is T3, mouse HIDE1 Flag (mouse, UniProt Q75VT8 22-222).
T3 construct: Over-expressed on HEK293 and EL4 cells (pMSCV); whole cell extracts in WB; also called mHIDE1 flag; not shown: Flag tag
T3 sequence: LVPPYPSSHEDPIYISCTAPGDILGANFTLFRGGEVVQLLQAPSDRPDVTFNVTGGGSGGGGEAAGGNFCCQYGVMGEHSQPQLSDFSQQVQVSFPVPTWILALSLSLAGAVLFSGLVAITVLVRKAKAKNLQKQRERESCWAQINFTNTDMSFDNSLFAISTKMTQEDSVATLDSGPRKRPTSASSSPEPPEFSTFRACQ
Description: Western blot of whole cell extracts, goat anti-mouse HRP.

By koff is commonly meant a measure of how fast the partners let go of each other.

T1 sequence (chain, as listed by the source C220S C220S limits assumed): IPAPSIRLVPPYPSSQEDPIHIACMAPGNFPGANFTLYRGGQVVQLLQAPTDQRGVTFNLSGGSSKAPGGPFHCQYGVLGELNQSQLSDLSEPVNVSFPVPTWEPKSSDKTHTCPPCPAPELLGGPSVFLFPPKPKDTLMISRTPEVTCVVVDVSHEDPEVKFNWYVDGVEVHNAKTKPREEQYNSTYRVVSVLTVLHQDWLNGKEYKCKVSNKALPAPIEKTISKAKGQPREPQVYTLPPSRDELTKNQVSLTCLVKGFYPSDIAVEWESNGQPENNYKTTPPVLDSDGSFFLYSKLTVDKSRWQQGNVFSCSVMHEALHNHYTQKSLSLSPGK

B1: B09 S404-01.C08 (Fab, V domains shown)
VH: QVQLVESGGGVVQPGRSLRLSCAASGFTFSSYAMHWVRQAPGKGLEWVAVISYDGSNKYYADSVKGRFTISRDNSKNTLYLQMNSLRAEDTAVYYCARSSGSSWSNIAYWGQGTLVTVSS
VL: QSVLTQPPSVSGAPGQRVTISCIGSSSNIGAGYDVHWYRQLPGTAPKLLIYDNTNRPSGVPDRFSASKSGISASLAITGLQAEDEADYYCQSYDSNLSGVFGGGTQLTVL
notes: Fab form of CPA.12.012 (IgG4 form is m55); complex kinetics; copies: 1 + 1
In the case of B1, the binding result in assay [1] is given as “binds”.

B2: αhHIDE1_AbD25753.1_Ser_Fab (Fab)
heavy: EVQLVQSGAEVKKPGESLKISCKGSGYSFTNYWIHWVRQMPGKGLEWMGIIDPGNSFTRYSPSFQGQVTISADKSISTAYLQWSSLKASDTAMYYCARGDGLYGGSDGYSMGGFDNWGQGTLVTVSSASTKGPSVFPLAPSSKSTSGGTAALGCLVKDYFPEPVTVSWNSGALTSGVHTFPAVLQSSGLYSLSSVVTVPSSSLGTQTYICNVNHKPSNTKVDKKVEPKSEFKAEMPVLENRAAQGDITTPGGARRLTGDQTAALRDSLSDKPAKNIILLIGDGMGDSEITAARNYAEGAGGFFKGIDALPLTGQYTHYALNRKTGKPDYVTSSAASATAWSTGVKTYNGALGVDIHEKDHPTILEMAKAAGLATGNVSTAELQDATPAALVAHVTSRKCYGPSATSEKCPGNALEKGGKGSITEQLLNARADVTLGGGAKTFAETATAGEWQGKTLREQAQARGYQLVSDAASLNSVTEANQQKPLLGLFADGNMPVRWLGPKATYHGNIDKPAVTCTPNPQRNDSVPTLAQMTDKAIELLSKNEKGFFLQVEGASIDKQDHAANPCGQIGETVDLDEAVQRALEFAKKEGNTLVIVTADHAHASQIVAPDTKAPGLTQALNTKDGAVMVMSYGNSEEDSQEHTGSQLRIAAYGPHAANVVGLTDQTDLFYTMKAALGLKGAPDYKDDDDKGAPHHHHHH
light: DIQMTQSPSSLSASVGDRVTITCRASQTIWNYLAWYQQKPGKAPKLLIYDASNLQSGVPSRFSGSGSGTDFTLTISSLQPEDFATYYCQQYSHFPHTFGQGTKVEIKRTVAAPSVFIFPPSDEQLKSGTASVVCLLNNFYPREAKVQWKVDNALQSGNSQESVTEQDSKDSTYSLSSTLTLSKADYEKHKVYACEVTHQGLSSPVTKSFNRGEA
notes: Serotec HuCAL Fab-A-FH
As to B2, in assay [2], the Kd amounted to 0.07 nM and the koff stood at 4.45e-05 s⁻¹. Also, in the assay with human HIDE1-flag, the “FACS analysis (GeoMean fold) human HIDE1/empty vector” value was 150 fold.

B3: αhHIDE1_AbD25754.1_Ser_Fab (Fab)
heavy: QVQLVQSGAEVKKPGASVKVSCKASGYTFSGYGMHWVRQAPGQGLEWMGIISPSNGNTNYAQKFQGRVTMTRDTSISTAYMELSRLRSEDTAVYYCAREVYYGLDVWGQGTLVTVSSASTKGPSVFPLAPSSKSTSGGTAALGCLVKDYFPEPVTVSWNSGALTSGVHTFPAVLQSSGLYSLSSVVTVPSSSLGTQTYICNVNHKPSNTKVDKKVEPKSEFKAEMPVLENRAAQGDITTPGGARRLTGDQTAALRDSLSDKPAKNIILLIGDGMGDSEITAARNYAEGAGGFFKGIDALPLTGQYTHYALNRKTGKPDYVTSSAASATAWSTGVKTYNGALGVDIHEKDHPTILEMAKAAGLATGNVSTAELQDATPAALVAHVTSRKCYGPSATSEKCPGNALEKGGKGSITEQLLNARADVTLGGGAKTFAETATAGEWQGKTLREQAQARGYQLVSDAASLNSVTEANQQKPLLGLFADGNMPVRWLGPKATYHGNIDKPAVTCTPNPQRNDSVPTLAQMTDKAIELLSKNEKGFFLQVEGASIDKQDHAANPCGQIGETVDLDEAVQRALEFAKKEGNTLVIVTADHAHASQIVAPDTKAPGLTQALNTKDGAVMVMSYGNSEEDSQEHTGSQLRIAAYGPHAANVVGLTDQTDLFYTMKAALGLKGAPDYKDDDDKGAPHHHHHH
light: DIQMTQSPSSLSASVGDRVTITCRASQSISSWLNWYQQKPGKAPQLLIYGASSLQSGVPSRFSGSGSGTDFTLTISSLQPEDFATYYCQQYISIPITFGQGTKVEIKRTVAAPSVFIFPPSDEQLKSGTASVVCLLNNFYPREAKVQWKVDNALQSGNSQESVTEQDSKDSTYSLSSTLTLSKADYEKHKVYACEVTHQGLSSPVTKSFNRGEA
modifications: Fab-A-FH format: the Fd chain carries bacterial alkaline phosphatase (which dimerises it, making the Fab bivalent), then FLAG and His6; all of these are in the letters.
notes: Serotec HuCAL Fab-A-FH; also called Ab332
As for B3, in assay [2], the Kd amounted to 0.1 nM and the koff is 6.09e-05 s⁻¹. In the assay with human HIDE1-flag, the “FACS analysis (GeoMean fold) human HIDE1/empty vector” value is 145 fold.

B4: Mouse anti human HIDE1 mAb (Biotem #39A7-3A10-3G8) (antibody, mouse IgG1, kappa, V domains shown)
VH: QVQLQQSGAELVRPGASVKLSCKALGYTFTDYEMHWVKQTPVHGLEWIGDIYPGSGGTAYNQKFKGKATLTADKSSSTAYMELSSLTSEDSAVYYCTRKGRSFAYWGQGTLVTVSA
VL: NIVMTQSPKSMSMSVGERVTLSCKASENVDTYVSWYQQKPEQSPKLLIYGASNRYTGVPDRFTGSGSATDFTLIISSVQAEDLADYHCGQSYRYPLTFGAGTKLELKR
notes: Mouse IgG1; also called 39A7-39A10-3G8
For B4, in the assay with mouse HIDE1 Flag, the binding result is listed as “no binding (tested: 2 µg/ml)”.

The values are drawn from patent US20180305451A1 (COMPUGEN, published 2018).
